Columns and labels:
[1] = target: T1, Human FcRn (Homo sapiens, UniProt P55899); assay: FcRn binding AlphaLISA; conditions: hu FcRN binding aLISA
T1 construct: purchased PerkinElmer AL3095C
Protocol: Human IgG Conjugated Acceptor Beads (2×) and Streptavidin (SA) Donor Beads were diluted to reach final concentrations of 5 μg/ml.
To wells in the assay plates, 10 ul of diluted antibodies, 10 ul of diluted FcRn, 20 ul of human IgG conjugated Acceptor beads, and SA-Donor beads were added.

[2] = target: T2, hu CD20 (Homo sapiens, UniProt P11836); assay: CD20 binding ELISA
T2 sequence (P11836 1-297): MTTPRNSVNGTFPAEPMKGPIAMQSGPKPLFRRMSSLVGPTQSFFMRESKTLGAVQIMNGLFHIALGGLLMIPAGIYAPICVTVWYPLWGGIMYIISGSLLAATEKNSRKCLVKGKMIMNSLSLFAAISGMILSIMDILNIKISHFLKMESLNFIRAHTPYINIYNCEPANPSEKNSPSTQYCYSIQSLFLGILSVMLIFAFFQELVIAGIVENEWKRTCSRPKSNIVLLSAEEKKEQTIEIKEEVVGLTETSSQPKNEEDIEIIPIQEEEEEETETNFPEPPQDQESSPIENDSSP
Protocol: The interaction of the unmodified and of conjugated anti-CD20 antibodies with CD20 were measured by ELISA assay. […] Plates were washed four times with 100 μl of PBS-0.02% Tween20. and blocked with 25 μl of PBS-0.02% Tween20-1% BSA at 37° C. with shaking at 600 RPM, for 1 h. Plates were then washed four times with 100 μl of PBS-0.02% Tween20. […] Plates were then washed four times with 100 μl of PBS-0.02% Tween20. 25 ul of Streptavidin-Horseradish peroxidase (#RABHRP3, Merck, Buchs, Switzerland) diluted at 1:500 into PBS-0.02% Tween20-0.1% BSA were added to each well and incubated at room temperature for 30 min. Plates were then washed four times with 100 μl of PBS-0.02% Tween20. […] ELISA signal is then measured at 450 nm on an ENSPIRE® plate reader from Perkin Elmer (Schwerzenbach, Switzerland).

[3] = tested on: B cells; assay: B cell depletion in hCD20 transgenic C57BL/6 mice; type: in vivo; conditions: 5 mg/kg single intraperitoneal injection on Day 0, FIG. 7A
Protocol: Animal Groupings and administration: 9 animals were randomly enrolled into three study groups based on the body weight 5 days before administration (day −5). Each group consists of 3 mice. Single doses were administered 5 day post grouping (Day 0).
Sample collection: 100 μL whole blood were collected with anticoagulant (DETA-2K) for flow cytometry. Collection time points: Day −5, Day 6, Day 9, Day 14, and Day 21.
Flow cytometry: Preparation of single cell suspensions: For the treatment of spleen samples, the spleen was transferred to a 35 mm culture dish, and then ground with a sterile syringe tail. The cells were washed and centrifuged at 500 g for 5 min at 4° C. The cell pellet was resuspended with 2 ml of red blood cell lysis buffer and incubated for 5-8 min at room temperature. A volume 10 mL of PBS was added to the cell suspension to stop the lysing, and centrifuged at 500 g for 5 min at 4° C. The cells were counted using a blood cell counting chamber. For the treatment of the blood samples, 100 μL of the blood sample was transferred into a 1.5 mL EP tube. To this, 1.4 mL of red blood cell lysis buffer is added, and mixed by inversion. The lysis is carried out for 5-8 min at room temperature. The lysed blood sample is centrifuge at 500 g for 5 min at 4° C. The resultant cell pellet is resuspended in PBS to the required volume for flow cytometry.
The flow cytometry protocol is as follows. […]

[4] = target: T3, mu FcγRIII (CD16) (Mus musculus, UniProt P08508); assay: Fc gamma receptor binding ELISA
T3 construct: purchased R&D Systems 1960-FC-050
T3 sequence (P08508 31-261): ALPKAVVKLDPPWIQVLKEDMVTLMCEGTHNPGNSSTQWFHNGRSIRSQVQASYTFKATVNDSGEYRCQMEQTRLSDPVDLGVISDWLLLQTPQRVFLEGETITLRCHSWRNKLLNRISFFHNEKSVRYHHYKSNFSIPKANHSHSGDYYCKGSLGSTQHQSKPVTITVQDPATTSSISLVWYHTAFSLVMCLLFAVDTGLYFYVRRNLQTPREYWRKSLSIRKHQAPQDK
Protocol: (§1) To analyze Fc Receptor gamma binding test molecules were diluted to 2.5 ug/ml in PBS and plates were coated overnight at 4° C. The next day the assay plates were washed four times with 100 ul of wash buffer: PBS+0.02% Tween 20 and blocked with PBS+1% BSA, for one hour at 37° C., with shaking at 600 RPM. The blocked plates were then washed four times with 100 ul wash buffer. Diluted FcRgamma (Reagents listed, below) was freshly diluted in wash buffer. Plates were then incubated with 25 ul of diluted Fc for two hours with shaking at 600 RPMs, then washed with 100 ul wash buffer, four times. The wells were then incubated with 25 ul of either 1:500 diluted streptavidin-Horseradish peroxidase (HRP) for detection of human FcgR or 1:500 diluted Anti-HIS tag antibody-HRP in wash buffer. The HPR detection molecules were incubated in the wells at room temperature for one hour with shaking at 600 RPMs. Plate wells were washed with 100 ul of wash buffer, four times. Plates were detected using the chromogenic HRP substrate 3,3′,5,5;-tetramethylbenzidine (TMB). Samples were read using a spectrophotometer plate reader with OD set to 450 nm.

[5] = target: T4, mu FcγRI (CD64) (Mus musculus, UniProt P26151); assay: Fc gamma receptor binding ELISA
T4 construct: purchased R&D Systems 2074-FC-050
T4 sequence (P26151 25-404): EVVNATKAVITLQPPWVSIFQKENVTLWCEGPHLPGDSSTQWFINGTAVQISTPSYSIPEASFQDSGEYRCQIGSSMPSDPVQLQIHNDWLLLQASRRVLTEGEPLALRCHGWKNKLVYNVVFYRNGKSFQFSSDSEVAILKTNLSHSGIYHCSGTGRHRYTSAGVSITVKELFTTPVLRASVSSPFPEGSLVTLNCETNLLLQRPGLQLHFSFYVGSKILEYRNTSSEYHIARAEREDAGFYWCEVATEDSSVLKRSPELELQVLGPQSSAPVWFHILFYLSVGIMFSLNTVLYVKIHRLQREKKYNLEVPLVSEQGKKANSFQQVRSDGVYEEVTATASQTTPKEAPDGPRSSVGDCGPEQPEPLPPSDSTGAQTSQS
Protocol: as §1

[6] = target: T5, hu FcγRIIb (CD32b) (Homo sapiens, UniProt P31994); assay: Fc gamma receptor binding ELISA
T5 construct: Avi-tag; purchased R&D Systems AVI1875-050
T5 sequence (P31994 43-310): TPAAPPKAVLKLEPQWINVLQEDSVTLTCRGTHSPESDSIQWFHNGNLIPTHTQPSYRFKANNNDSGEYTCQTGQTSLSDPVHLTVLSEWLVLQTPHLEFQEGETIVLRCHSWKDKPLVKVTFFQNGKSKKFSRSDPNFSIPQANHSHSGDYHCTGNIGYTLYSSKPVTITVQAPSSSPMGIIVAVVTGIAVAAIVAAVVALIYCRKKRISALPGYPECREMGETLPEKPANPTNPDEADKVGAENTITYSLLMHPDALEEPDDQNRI
Protocol: as §1

[7] = target: T6, mu FcγRIV (CD16-2) (Mus musculus, UniProt A0A0B4J1G0); assay: Fc gamma receptor binding ELISA; conditions: mu FcγRIV (CD16-2) ELISA
T6 construct: purchased R&D Systems 1974-CD-050
T6 sequence (A0A0B4J1G0 21-249): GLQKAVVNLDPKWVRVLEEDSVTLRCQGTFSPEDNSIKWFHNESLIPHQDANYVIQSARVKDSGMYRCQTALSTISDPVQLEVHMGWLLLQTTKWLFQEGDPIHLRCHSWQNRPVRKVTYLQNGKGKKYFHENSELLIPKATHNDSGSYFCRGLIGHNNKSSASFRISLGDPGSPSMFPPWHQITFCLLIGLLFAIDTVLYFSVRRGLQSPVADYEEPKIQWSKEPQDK
Protocol: as §1

[8] = target: T7, hu FcγRIII (CD16a) (Homo sapiens, UniProt P08637); assay: Fc gamma receptor binding ELISA
T7 construct: purchased R&D Systems 4325-FC-050
Protocol: as §1

[9] = target: T8, hu FcγRI (CD64) (Homo sapiens, UniProt P12314); assay: Fc gamma receptor binding ELISA
T8 construct: purchased R&D Systems 1257-FC-050
Protocol: as §1

[10] = tested on: Raji cells; assay: Antibody-dependent cell-mediated cytotoxicity (ADCC) bioassay; type: cell-based, human; conditions: 25:1 PBMC:Raji, FIG. 6
Protocol: To determine the effectiveness of antiCD20 IL-2 immunoconjugates in activating immune cell function, an ADCC assay was employed. Human peripheral blood mononuclear cells (hPBMC) and target cells (Raji cells expressing HiBiT) were purchased from Promega as a kit (PBMC ADCC Bioassay Kit Raji, # CS3055A17). […] Once the cells recovered cells were counted. Raji cells were suspended at a concentration of 2×10^5 per ml, and PBMCs were suspended at 5×10^6 per ml. The killing assay was conducted in a 96 well U-bottom plate. Cells were seeded at a ratio of 25:1 Effector cell (PBMC):antiCD20 Target cell (Raji). Plates were incubated for 24 hours at 37 C in 5% CO2. Cell mixtures were treated with serial dilutions of immunocytokines to induce ADCC and placed back in the incubator for an additional 24 hours. Tissue culture supernatants from wells were assayed using Nano-Glo® HiBiT Extracellular assay detection kit.

T1 sequence (P55899 24-297 limits assumed): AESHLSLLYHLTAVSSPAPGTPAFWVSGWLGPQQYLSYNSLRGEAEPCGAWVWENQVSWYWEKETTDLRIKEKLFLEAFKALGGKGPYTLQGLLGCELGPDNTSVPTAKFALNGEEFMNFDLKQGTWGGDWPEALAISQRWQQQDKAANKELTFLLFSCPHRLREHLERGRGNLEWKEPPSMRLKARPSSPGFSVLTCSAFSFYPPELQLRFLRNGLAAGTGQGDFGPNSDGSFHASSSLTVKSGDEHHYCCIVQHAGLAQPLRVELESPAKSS
T1 sequence (P61769 21-119 partner): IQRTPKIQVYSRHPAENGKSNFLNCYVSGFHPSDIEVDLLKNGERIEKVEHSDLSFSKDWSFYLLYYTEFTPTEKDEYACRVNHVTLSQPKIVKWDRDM
T7 sequence (P08637 17-254): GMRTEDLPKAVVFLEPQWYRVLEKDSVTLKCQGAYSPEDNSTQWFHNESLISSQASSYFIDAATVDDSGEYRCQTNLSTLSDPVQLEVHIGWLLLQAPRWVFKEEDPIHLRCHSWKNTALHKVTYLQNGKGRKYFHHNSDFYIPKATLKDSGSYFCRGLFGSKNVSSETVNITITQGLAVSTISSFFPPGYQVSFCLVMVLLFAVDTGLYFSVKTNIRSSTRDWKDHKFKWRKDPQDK
T8 sequence (P12314 16-374): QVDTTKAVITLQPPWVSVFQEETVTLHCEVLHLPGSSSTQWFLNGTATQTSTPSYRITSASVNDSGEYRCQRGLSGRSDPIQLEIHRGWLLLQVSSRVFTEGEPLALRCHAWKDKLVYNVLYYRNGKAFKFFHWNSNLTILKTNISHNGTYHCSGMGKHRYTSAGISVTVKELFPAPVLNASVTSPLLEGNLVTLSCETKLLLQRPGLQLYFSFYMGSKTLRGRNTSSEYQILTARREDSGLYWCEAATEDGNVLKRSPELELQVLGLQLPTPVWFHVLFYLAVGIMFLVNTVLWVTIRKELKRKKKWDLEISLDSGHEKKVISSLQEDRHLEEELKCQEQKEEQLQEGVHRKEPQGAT

Anti-CD20 Antibody: parent anti-CD20 antibody biosimilar Rituximab, unconjugated
EC50 [1]: 4 nM | EC50 [2]: 0.08 nM | depletion of B cells [3]: substantial ability to deplete B cells | EC50 [4]: 133 nM | EC50 [5]: 35 nM | EC50 [6]: 880 nM | EC50 [7]: 20 nM | EC50 [8]: 185 nM | EC50 [9]: 0.23 nM | ADCC-targeted cell killing of Raji cells [10]: Less cell killing overall

From patent publication US20230201365A1, “MODIFIED CD20 ANTIBODIES AND USES THEREOF” (Bright Peak Therapeutics AG, priority 2021, published 2023)
